Measurements: patent US20060073149A1
pKd: −log10 of the molar value.

How the values were obtained:
Soluble Aβ 1-40 = Soluble Aβ 1-40 (UniProt P05067); assay: SPR (BIAcore 2000), antibody captured on anti-Ig, soluble Aβ in flow
Soluble Aβ 1-42 = Soluble Aβ 1-42 (UniProt P05067); assay: as above

Row | pKd (Soluble Aβ 1-40) | pKd (Soluble Aβ 1-42) | Substance
1 | 11.40 | 11.40 | Murine anti-Aβ antibody 266
2 | 7.64 | 7.62 | anti-Aβ murine antibody 4G8
3 | – | 8.36 | anti-Aβ murine antibody 21F12
